# ± gives the standard deviation.
# Assay: protein stability index of a GFP-peptide fusion (GPS, HEK-293T) (PSI 1-6); higher = more stable
# [1] = treatment: DMSO, c terminus: a fixed tail appended
# [2] = treatment: MLN4924 1 uM, 8 h, c terminus: a fixed tail appended
# [3] = treatment: DMSO, c terminus: native
# [4] = treatment: MLN4924 1 uM, 8 h, c terminus: native
# 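Note: 24-mer peptide tiles fused after GFP, lentivirally expressed, FACS-sorted into six equal bins by GFP/DsRed ratio, decoded by Illumina sequencing, PSI is the read-weighted mean bin number.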
sequence,measurement,setting,value
VLDLEARGYIKPHVDSIKFCGATI [ALKBH7],protein stability index,[1],2.14 ± 0.26
same,protein stability index,[2],2.15 ± 0.42
ARVTGELTMTFPAGIVRVFSGTPP [FCHO1],protein stability index,[1],2.51 ± 0.16
same,protein stability index,[2],2.43 ± 0.23
GSQLEDQALRGLEGYTWRVAQLED [ZSWIM9],protein stability index,[1],3.98 ± 0.55
same,protein stability index,[2],4.25 ± 0.2
QSGRHLQTHSNTIVVSLQSKLASM [STX5],protein stability index,[1],2.79 ± 0.36
same,protein stability index,[2],2.97 ± 0.28
QFAAEYTSKNSSTQDPSQPNSTKN [LCOR],protein stability index,[1],5.22 ± 0.15
same,protein stability index,[2],5.36 ± 0.08
SKPKNSVWKRLKSPFRKKKDSVT [RIT1],protein stability index,[3],3.55 ± 0.49
same,protein stability index,[4],3 ± 0.43
PTKSHSFRAMCQNGKLVYPSCEEK [CFHR2],protein stability index,[1],4.01 ± 0.32
same,protein stability index,[2],4.25 ± 0.34
KSSVYRRYNDFVVFQEMLLHKFPY [SNX8],protein stability index,[1],2.45 ± 0.65
same,protein stability index,[2],2.24 ± 0.39
HLSSQQASGQSYSSREVFTSSSSS [KRT16],protein stability index,[1],4.63 ± 0.21
same,protein stability index,[2],4.58 ± 0.17
STYRPLPDPSVWSRRYTEMALPFF [MYORG],protein stability index,[1],2.36 ± 0.4
same,protein stability index,[2],2.22 ± 0.13
LSATIGSILRELDTSMDGTEPPQN [SERTAD3],protein stability index,[1],4.1 ± 0.15
same,protein stability index,[2],4.26 ± 0.33
RGGSLLAGGGGFGGGSLSGGGGSR [KRT15],protein stability index,[1],3.32 ± 1.1
same,protein stability index,[2],3.95 ± 0.34
KPVDMWACGVILYILLVGYPPFWD [CAMK2D],protein stability index,[1],3.46 ± 0.29
same,protein stability index,[2],3.36 ± 0.41
RESPSFKLEPMETERSPGPRLQEL [ZNF263],protein stability index,[1],4.42 ± 0.14
same,protein stability index,[2],4.51 ± 0.2
YINFRHLYKQRRRRYGQKKKKIH [HACD3],protein stability index,[3],2.12 ± 0.29
same,protein stability index,[4],2.74 ± 0.55
MRLSSSPPRGPQQLSSFGSVDWLS [VENTX],protein stability index,[1],2.99 ± 0.059
same,protein stability index,[2],3.15 ± 0.3
QHSHVVRYFSAWAEDDHMLIQNEY [WEE1],protein stability index,[1],2.22 ± 0.14
same,protein stability index,[2],2.24 ± 0.12
PVFLHSQMLWELVLLGEPLVVMAP [DENND6A],protein stability index,[1],2.81 ± 0.63
same,protein stability index,[2],2.98 ± 0.69
WRNIILMSLLHLGALYGITLIPTC [SCD],protein stability index,[1],2.83 ± 0.19
same,protein stability index,[2],2.9 ± 0.42
EQSSARQKASLLIQQALTMFPGVL [TCF25],protein stability index,[1],2.51 ± 0.3
same,protein stability index,[2],2.54 ± 0.3
ICGFLKERCFRGSSYPVCVSKVVK [OAS1],protein stability index,[1],2.62 ± 0.31
same,protein stability index,[2],2.13 ± 0.3
KSMHREELEKSGHGQAGQRQDPRP [ZBED2],protein stability index,[1],5.21 ± 0.13
same,protein stability index,[2],5.2 ± 0.3
PLPHPGAAPWPMAFPYQYPPPPHP [DVL3],protein stability index,[1],3.15 ± 0.28
same,protein stability index,[2],3.41 ± 0.13
LEANADTSVEEESFGPQPISRLEQ [RAD51],protein stability index,[1],5.38 ± 0.2
same,protein stability index,[2],5.44 ± 0.18
QSMSQTRELLLDGGYLQRTTYDRR [RSPH3],protein stability index,[1],3.85 ± 0.13
same,protein stability index,[2],3.77 ± 0.052
RIHVLPSLNPDGYEKAYEGGSELG [CPXM2],protein stability index,[1],3.93 ± 0.11
same,protein stability index,[2],4.36 ± 0.36
AALHMVIVAAFTWAFTLFFEVSE [KMT2E],protein stability index,[3],2.48 ± 0.21
same,protein stability index,[4],2.34 ± 0.16
RGGMLSASAETLPAGFRVSTLGTL [PPFIA4],protein stability index,[1],3.26 ± 0.14
same,protein stability index,[2],3.57 ± 0.49
EVKLLLSSETPIEGKNMSFVNDLT [APMAP],protein stability index,[1],3.35 ± 0.23
same,protein stability index,[2],3.56 ± 0.13
CRTYIIHYYLMDDTVEIREVHERN [EFHC1],protein stability index,[1],2.55 ± 0.38
same,protein stability index,[2],2.39 ± 0.29
HPSGHWATCRLCGEQVGRGPGFHA [ZBED3],protein stability index,[1],2.52 ± 0.069
same,protein stability index,[2],3.05 ± 0.29
FSQKHFPEVVQHEEFILLSQGEVE [KLHL12],protein stability index,[1],3.44 ± 0.81
same,protein stability index,[2],3.45 ± 0.33
NQTAELRELLEFTHMYLQSDDEME [P3H4],protein stability index,[1],4.83 ± 0.19
same,protein stability index,[2],4.7 ± 0.18
NSMPVDNRNHNEGMVTRCIIEVLS [CHGB],protein stability index,[1],2.77 ± 0.14
same,protein stability index,[2],2.59 ± 0.3
SMEGVRWAFSCGTWLPSRAEWLLA [AASDHPPT],protein stability index,[1],2.65 ± 0.57
same,protein stability index,[2],2.79 ± 0.52
VFWPQLPNGLEAAYEFADRDEVRF [MMP1],protein stability index,[1],2.86 ± 0.26
same,protein stability index,[2],3.1 ± 0.3
LVTGLAIEEACYAQTIPTKDRLEG [AUH],protein stability index,[1],3.02 ± 0.34
same,protein stability index,[2],3.13 ± 0.27

# Source: the supplement of paper PMC10567573
